Consider one substance from patent US20210040184A1.

Assay [1] has as its target Clade B BaL gp120 protein (HIV-1 Clade B, BaL). Nature of the assay: BLI (Octet), IgG on anti-hIgG Fc sensor, gp120 analyte, 1:1 fit. On the technique in general: Biolayer interferometry detects binding as a change in optical thickness at a sensor tip.
Assay [2] concerns the target Clade C DU172.17 gp120 protein (HIV-1 Clade C, DU172.17). The assay is described as above.
In assay [3] the target is HIV-1 X1632_S2_B10 envelope (Env) on Env.IMC.LucR virus (HIV-1 clade G). Nature of the assay: cell-based or functional assay.
The target of assay [4] is HIV-1 DU422.1 envelope (Env) on Env.IMC.LucR virus (HIV-1 clade C). Nature of the assay: cell-based or functional assay.
Assay [5] concerns the target HIV-1 DU172.17 envelope (Env) on Env.IMC.LucR virus (HIV-1 clade C). Nature of the assay: cell-based or functional assay.
For assay [6], the target named is HIV-1 REJO4541.67 envelope (Env) on Env.IMC.LucR virus (HIV-1 clade B). Nature of the assay: cell-based or functional assay.
Assay [7] has as its target HIV-1 CNE20 envelope (Env) on Env.IMC.LucR virus (HIV-1 clade BC). Nature of the assay: cell-based or functional assay.
Assay [8] addresses HIV-1 AC10.0.29 envelope (Env) on Env.IMC.LucR virus (HIV-1 clade B). The experiment in a line: cell-based or functional assay.
Assay [9] has as its target HIV-1 CAP45.2.00.G3 envelope (Env) on Env.IMC.LucR virus (HIV-1 clade C). Nature of the assay: cell-based or functional assay.

By Kd is commonly meant a measure of binding affinity in units of concentration. A high value points to a looser complex. By koff is commonly meant a measure of how fast the partners let go of each other. High values mean fast dissociation, low ones slow dissociation. As a reminder, the kon is the rate constant with which the complex forms. For 3BNC117 (antibody), the equilibrium dissociation constant (Kd) in assay [1] came out at 3.29 nM; in [2] it was 95.8 nM. In addition, the figures for the fold (KD vs average of 4 runs of L1A2) in assay [1] and in assay [2] were 6.07 fold and 3.77 fold, respectively. Also, the koff was determined as 0.000291 s⁻¹ in assay [1] and 0.00457 s⁻¹ in assay [2]. The on-rate constant (kon) in assay [1] was 88500 M⁻¹ s⁻¹; in assay [2], 47700 M⁻¹ s⁻¹. Moreover, the IC50 of virus neutralization (TZM-BL, luciferase) is 31.2 µg/mL in [3]; greater than 50 µg/mL in assay [4]; 1.25 µg/mL in assay [5]; 0.07 µg/mL in [6]; greater than 50 µg/mL in assay [7]; 11 µg/mL in assay [8]. The substance also came in with an IC50 of virus neutralization (TZM-BL, luciferase) in [9] of 2.7 µg/mL.
